From PMC8041799, “Reovirus directly engages integrin to recruit clathrin for entry into host cells” (Nature Communications, 2021)

Assays:
α2β1 integrin [1] = target: α2β1 integrin (UniProt P17301); test: single-virus force spectroscopy (FD-curve-based AFM); virus particle on the AFM tip through a PEG27 linker; α2β1 integrin coupled by NHS/EDC to a gold surface; virion-storage buffer (150 mM NaCl, 15 mM MgCl2, 10 mM Tris pH 7.4) with 2 mM Mn2+; ~25 °C; koff from a Bell-Evans fit, kon from BF against contact time, KD = koff/kon
α2β1 integrin (UniProt P17301), sequence (P17301 30-1132, chain 1 of 2): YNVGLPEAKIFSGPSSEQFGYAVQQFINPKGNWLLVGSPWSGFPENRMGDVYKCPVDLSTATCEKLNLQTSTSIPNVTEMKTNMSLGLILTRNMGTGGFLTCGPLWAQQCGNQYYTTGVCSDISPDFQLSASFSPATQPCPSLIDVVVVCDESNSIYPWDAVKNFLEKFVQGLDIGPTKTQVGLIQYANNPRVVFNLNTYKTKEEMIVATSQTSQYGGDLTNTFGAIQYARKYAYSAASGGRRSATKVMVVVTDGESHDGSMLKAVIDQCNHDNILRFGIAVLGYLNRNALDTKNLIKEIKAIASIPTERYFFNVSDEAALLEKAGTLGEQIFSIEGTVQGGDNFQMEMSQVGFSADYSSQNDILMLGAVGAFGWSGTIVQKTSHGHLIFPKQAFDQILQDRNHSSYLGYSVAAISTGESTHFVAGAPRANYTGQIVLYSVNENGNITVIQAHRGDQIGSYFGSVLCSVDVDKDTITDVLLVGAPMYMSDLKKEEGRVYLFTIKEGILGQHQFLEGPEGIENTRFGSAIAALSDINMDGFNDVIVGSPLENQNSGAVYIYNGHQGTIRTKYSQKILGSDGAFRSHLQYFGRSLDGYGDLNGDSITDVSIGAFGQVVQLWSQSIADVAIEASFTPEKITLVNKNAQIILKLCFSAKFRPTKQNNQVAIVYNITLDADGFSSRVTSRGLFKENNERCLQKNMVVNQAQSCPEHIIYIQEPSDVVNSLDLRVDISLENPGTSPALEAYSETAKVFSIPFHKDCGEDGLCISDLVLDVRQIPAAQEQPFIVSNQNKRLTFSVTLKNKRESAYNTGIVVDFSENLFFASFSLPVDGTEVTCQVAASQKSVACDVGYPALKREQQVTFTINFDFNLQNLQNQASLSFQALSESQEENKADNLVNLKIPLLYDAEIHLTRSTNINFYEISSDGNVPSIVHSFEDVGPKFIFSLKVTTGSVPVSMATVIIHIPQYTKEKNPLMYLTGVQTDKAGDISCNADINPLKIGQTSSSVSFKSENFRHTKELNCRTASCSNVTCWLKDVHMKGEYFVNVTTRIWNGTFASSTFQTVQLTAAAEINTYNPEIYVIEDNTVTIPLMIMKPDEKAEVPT
α2β1 integrin (UniProt P17301), sequence (P05556 21-728, chain 2 of 2, further chain): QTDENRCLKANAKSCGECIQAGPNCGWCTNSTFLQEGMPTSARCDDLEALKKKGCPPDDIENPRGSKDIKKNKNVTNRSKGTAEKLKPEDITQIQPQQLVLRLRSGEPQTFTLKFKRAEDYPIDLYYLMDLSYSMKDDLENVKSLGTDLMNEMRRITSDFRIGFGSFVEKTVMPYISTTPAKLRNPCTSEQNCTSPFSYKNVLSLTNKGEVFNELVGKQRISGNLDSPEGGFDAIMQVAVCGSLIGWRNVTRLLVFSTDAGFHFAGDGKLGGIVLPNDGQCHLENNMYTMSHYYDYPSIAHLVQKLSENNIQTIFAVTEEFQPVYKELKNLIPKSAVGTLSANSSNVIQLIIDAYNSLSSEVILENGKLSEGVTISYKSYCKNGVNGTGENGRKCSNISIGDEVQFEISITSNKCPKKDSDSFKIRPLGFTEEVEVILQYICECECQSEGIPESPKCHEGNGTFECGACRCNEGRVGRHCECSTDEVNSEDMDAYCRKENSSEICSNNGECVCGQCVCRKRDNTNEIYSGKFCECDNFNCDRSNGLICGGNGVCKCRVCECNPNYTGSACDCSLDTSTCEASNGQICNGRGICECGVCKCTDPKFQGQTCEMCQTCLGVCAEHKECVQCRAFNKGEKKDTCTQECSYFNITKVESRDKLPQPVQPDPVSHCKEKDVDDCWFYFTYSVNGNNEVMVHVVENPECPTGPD

α2β1 integrin [2] = target: α2β1 integrin (UniProt P17301); test: BLI; α2β1 integrin immobilised on amine-reactive (AR2G) biosensors; T3SA+ virus ~10^13 particles/mL (16 nM in the fit) in virion-storage buffer with 2 mM Mn2+; room temperature; BLItz
[3] = target: β1 integrin on living Lec2 cells (Chinese hamster (endogenous in Lec2)); test: single-virus force spectroscopy (FD-curve-based AFM); virion on the AFM tip; living Lec2 cells, PeakForce QNM mode; 0.5 mM Mg2+
α2β1 integrin [4] = target: α2β1 integrin (UniProt P17301); test: single-virus force spectroscopy (FD-curve-based AFM); as a1 (Mn2+), with 1 mM Neu5Ac
[5] = target: β1 integrin on living Lec2 cells (Chinese hamster (endogenous in Lec2)); test: single-virus force spectroscopy (FD-curve-based AFM); virion on the AFM tip; living Lec2 cells, PeakForce QNM mode, cell culture conditions; 0.5 mM Mn2+
α2β1 integrin [6] = target: α2β1 integrin (UniProt P17301); test: BLI; as a11, virion-storage buffer (15 mM Mg2+) without further cation
[7] = target: β1 integrin on living Lec2 cells (Chinese hamster (endogenous in Lec2)); test: single-virus force spectroscopy (FD-curve-based AFM); virion on the AFM tip; living Lec2 cells, PeakForce QNM mode; with Ca2+ (concentration on cells not stated)
α2β1 integrin [8] = target: α2β1 integrin (UniProt P17301); test: single-virus force spectroscopy (FD-curve-based AFM); as a1 but 15 mM Mg2+ of the virion-storage buffer as only divalent cation
α2β1 integrin [9] = target: α2β1 integrin (UniProt P17301); test: single-virus force spectroscopy (FD-curve-based AFM); as a1 but with 2 mM Ca2+ instead of Mn2+
α2β1 integrin [10] = target: α2β1 integrin (UniProt P17301); test: BLI; as a11, virion-storage buffer with 2 mM Ca2+
α2β1 integrin [11] = target: T1, α2β1 integrin (UniProt P17301 30-1132; P05556 21-728); test: single-virus force spectroscopy (FD-curve-based AFM); virus particle on the AFM tip through a PEG27 linker; α2β1 integrin coupled by NHS/EDC to a gold surface; virion-storage buffer (150 mM NaCl, 15 mM MgCl2, 10 mM Tris pH 7.4) with 2 mM Mn2+; ~25 °C; koff from a Bell-Evans fit, kon from BF against contact time, KD = koff/kon; conditions: both partners purified
T1 construct: integrin α2 subunit; integrin β1 subunit; No catalogue number printed; The vendor's recombinant α2β1 is, as far as I recall, the human extracellular domains joined by acidic and basic tails; Coupled through amines (NHS/EDC) to gold surfaces or AR2G biosensors; also called α2β1 integrins; β1 integrins; source: bought: R&D Systems
T1 sequence (P17301 30-1132, chain 1 of 2): as the sequence (P17301 30-1132, chain 1 of 2) above
T1 sequence (P05556 21-728, chain 2 of 2): as the sequence (P05556 21-728, chain 2 of 2, further chain) above

What does the source list for “T3SA+ infectious subvirion particle (ISVP) (from UniProt P03528 1-455; P11077 1-708) (complex)”?
BF (binding frequency) (α2β1 integrin [1]): 4%; Kd (α2β1 integrin [1]): 105 nM; koff (α2β1 integrin [1]): 0.59 s⁻¹; kon (α2β1 integrin [1]): 5.62e+06 M⁻¹ s⁻¹

“reovirus strain T3SA+ virion (from UniProt P03528 1-455; P11077 1-708; P07939 1-365) (complex)” was tested. Which Kd (α2β1 integrin [2]) did it give?
The Kd was 2 nM.

And the BF (binding frequency) [3]?
The BF (binding frequency) was 3%.

And the BF (binding frequency) with Neu5Ac (α2β1 integrin [4])?
The BF (binding frequency) with Neu5Ac was 6%.

What about the Kd (α2β1 integrin [4]) of the same molecule?
The Kd was 116 nM.

And the koff (α2β1 integrin [4])?
The koff was 0.57 s⁻¹.

What about the kon (α2β1 integrin [4]) of the same molecule?
Its kon is 4.92e+06 M⁻¹ s⁻¹.

What about the BF (binding frequency) [5] of the same molecule?
Its BF (binding frequency) is 6%.

What about the Kd (α2β1 integrin [6]) of the same molecule?
Its Kd is 10 nM.

What about the BF (binding frequency) [7] of the same molecule?
Its BF (binding frequency) is 1%.

What about the BF (binding frequency) (α2β1 integrin [8]) of the same molecule?
Its BF (binding frequency) is 8%.

What about the Kd (α2β1 integrin [8]) of the same molecule?
The Kd was 548 nM.

And the koff (α2β1 integrin [8])?
Its koff is 2.1 s⁻¹.

And the kon (α2β1 integrin [8])?
The kon was 3.83e+06 M⁻¹ s⁻¹.

What about the BF (binding frequency) (α2β1 integrin [9]) of the same molecule?
Its BF (binding frequency) is 1%.

What about the BF (binding frequency) (α2β1 integrin [1]) of the same molecule?
The BF (binding frequency) was 19%.

And the Kd (α2β1 integrin [1])?
The Kd was 68 nM.

What about the koff (α2β1 integrin [1]) of the same molecule?
The koff was 0.4 s⁻¹.

And the kon (α2β1 integrin [1])?
The kon was 5.83e+06 M⁻¹ s⁻¹.

And the Kd (α2β1 integrin [10])?
The Kd was 85 nM.

“reovirus strain T3SA- virion (from UniProt P03528 1-455; P11077 1-708; P07939 1-365) (complex)” was tested. Which BF (binding frequency) (α2β1 integrin [1]) did it give?
The BF (binding frequency) was 7%.

And the Kd (α2β1 integrin [1])?
Its Kd is 103 nM.

And the koff (α2β1 integrin [1])?
The koff was 0.58 s⁻¹.

And the kon (α2β1 integrin [1])?
Its kon is 5.62e+06 M⁻¹ s⁻¹.

B1: T3SA+ core (complex)
chain: MANVWGVRLADSLSSPTIETRTRHYTLRDFCSDLDAVAGKEPWRPLRNQRTNDIVAVQLFRPLQGLVLDTQFYGFPGIFSEWEQFIKEKLRVLKYEVLRIYPISNYNHERVNVFVANALVGAFLSNQAFYDLLPLLVINDTMINDLLGTGAALSQFFQSHGEVLEVAAGRKYLQMKNYSNDDDDPPLFAKDLSDYAKAFYSDTFETLDRFFWTHDSSAGVLVHYDKPTNGNHYILGTLTQMVSAPPHIINATDALLLESCLEQFAANVRARPAQPVARLDQCYHLRWGAQYVGEDSLTYRLGVLSLLATNGYQLARPIPKQLTNRWLSSFVSQVMSDGVNETPLWPQERYVQIAYDSPSVVDGATHYGYVRRNQLRLGMRVSALQSLSDTPAPIQWLPQYTIEQAAVDEGDLMVSRLTQLPLRPDYGSIWVGDALSYYVDYNRSHRVVLSSELPQLPDTYFDGDEQYGRSLFSLARKIGDRSLIKDTAVLKHAYQAIDPNTGKEYLRAGQSVAYFGASAGHSGADQPLVIEPWTQGKISGVPPPSSVRQFGYDVAKGAIVDLARPFPSGDYQFVYSDVDQVVDGHDDLSISSGLVESLLDSCMHATSPGGSFVMKINFPTRTVWHYIEQKILPNITSYMLIKPFVTNNVELFFVAFGVHQQSALTWTSGVYFFLVDHFYRYETLSTISRQLPSFGYVDDGSSVTGIEMISLENPGFSNMTQAARVGISGLCANVGNARKLISIHESHGARVLTITSRRSPASARRKARLRYLPLVDPRSLEVQARTILPSNPVLFDNVNGASPHVCLTMMYNFEVSSAVYDGDVVLDLGTGPEAKILELIPPTSPVTCVDIRPTAQPSGCWNVRTTFLELDYLSDGWITGIRGDIVTCMLSLGAAAAGKSMTFDAAFQQLVKVLTKSTANVLLIQVNCPTDVIRTIKGYLEIDQTNKRYRFPKFGRDEPYSDMDSLERICRAAWPNCSITWVPLSYDLRWTKLALLESTTLSSASVRIAELMYKYMPVMRIDIHGLPMEKQGNFIVGQNCSLTIPGFNAQDVFNCYFNSALAFSTEDVNSAMIPQVTAQFDANKGEWSLDMVFSDAGIYTMQALVGSNANPVSLGSFVVDSPDVDITDAWPAQLDFTIAGTDVDITVNPYYRLMAFVRIDGQWQIANPDKFQFFSSSTGTLVMNVKLDIADRYLLYYIRDVQSRDVGFYIQHPLQLLNTITLPTNEDLFLSAPDMREWAVKESGNTICILNSQGFVPPQDWDVLTDTISWSPSLPTYVVPPGDYTLTPL
B1 was tested. Which Kd (α2β1 integrin [11]) did it give?
Its Kd is 741 ± 317 nM.

And the koff (α2β1 integrin [11])?
Its koff is 1.52 ± 0.4 s⁻¹.

What about the kon (α2β1 integrin [11]) of the same molecule?
Its kon is 2.05e+06 ± 300000 M⁻¹ s⁻¹.
